Data on three substances can be found in PMC3711080 (Bioconjugate chemistry, 2011).

The target of one assay is CXCR4 (Homo sapiens, UniProt P61073). The experiment in a line: Competition binding against 250 nM of peptide 3, flow cytometry. The settings on record: ratio of KD values, higher affinity of 1. (In flow cytometry, cells or beads pass a laser one at a time.)
Assay [1] has as its target chemokine receptor 4 (CXCR4) (human (endogenous in MDAMB231)) (UniProt P61073). Kind of assay: flow cytometry on cells.

The term Kd denotes the constant that tells how readily two partners part at equilibrium. Low readings indicate a tighter complex, high ones a looser complex.

Sequence of chemokine receptor 4 (CXCR4) (human (endogenous in MDAMB231)) (P61073 whole entry): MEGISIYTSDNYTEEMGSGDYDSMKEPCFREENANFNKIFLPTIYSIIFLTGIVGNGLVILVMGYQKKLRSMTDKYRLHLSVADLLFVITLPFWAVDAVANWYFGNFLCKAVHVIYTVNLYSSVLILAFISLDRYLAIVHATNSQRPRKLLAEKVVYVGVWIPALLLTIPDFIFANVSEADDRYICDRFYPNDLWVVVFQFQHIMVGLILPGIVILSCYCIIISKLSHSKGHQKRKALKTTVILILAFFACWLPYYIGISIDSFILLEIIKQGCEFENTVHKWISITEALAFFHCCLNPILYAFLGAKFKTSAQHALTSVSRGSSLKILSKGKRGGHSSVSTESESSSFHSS
Sequence of CXCR4 (P61073 whole entry): as above

On to Ac-TZ14011 [compound 1], for which, on CXCR4, the “receptor affinity relative to derivatives 3 and 4” value is on record as “approximately 20 times”.
“Ac-TZ14011 labeled with the MSAP reagent (peptide 3)”: in assay [1], the Kd was 187 nM and the MFIR (mean fluorescence intensity ratio), MDAMB231^CXCR4+ cells came out at 45.3.
For “Ac-TZ14011 labeled with the MSAP reagent, indium-labeled (peptide 4)” the same measures were 177 nM and 56.7.
